Measurements published in patent US20240000957A1 (published 2024).

T1: Human EphA1 Fc fusion (Human, UniProt P21709 26-547)
T1 construct: SPR; Sino Biologics 15789-H02H
T1 sequence (looked up): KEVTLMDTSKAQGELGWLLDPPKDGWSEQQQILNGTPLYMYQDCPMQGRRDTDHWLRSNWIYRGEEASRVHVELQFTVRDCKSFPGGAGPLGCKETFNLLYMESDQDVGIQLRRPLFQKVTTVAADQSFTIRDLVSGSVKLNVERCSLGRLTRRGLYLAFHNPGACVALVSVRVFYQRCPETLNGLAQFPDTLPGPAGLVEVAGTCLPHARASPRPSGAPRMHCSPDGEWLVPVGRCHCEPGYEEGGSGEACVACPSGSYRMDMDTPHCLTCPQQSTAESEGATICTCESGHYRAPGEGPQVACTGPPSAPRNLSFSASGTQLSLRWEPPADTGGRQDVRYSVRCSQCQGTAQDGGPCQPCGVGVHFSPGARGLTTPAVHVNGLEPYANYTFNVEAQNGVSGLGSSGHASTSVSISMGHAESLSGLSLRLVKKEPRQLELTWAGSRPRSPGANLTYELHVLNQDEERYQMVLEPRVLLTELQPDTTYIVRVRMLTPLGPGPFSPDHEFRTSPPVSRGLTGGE

T2: Mouse EphA3 Fc fusion (Mouse, UniProt P29319 21-540)
T2 construct: SPR; Sino Biologics 51122-M02H
T2 sequence (looked up): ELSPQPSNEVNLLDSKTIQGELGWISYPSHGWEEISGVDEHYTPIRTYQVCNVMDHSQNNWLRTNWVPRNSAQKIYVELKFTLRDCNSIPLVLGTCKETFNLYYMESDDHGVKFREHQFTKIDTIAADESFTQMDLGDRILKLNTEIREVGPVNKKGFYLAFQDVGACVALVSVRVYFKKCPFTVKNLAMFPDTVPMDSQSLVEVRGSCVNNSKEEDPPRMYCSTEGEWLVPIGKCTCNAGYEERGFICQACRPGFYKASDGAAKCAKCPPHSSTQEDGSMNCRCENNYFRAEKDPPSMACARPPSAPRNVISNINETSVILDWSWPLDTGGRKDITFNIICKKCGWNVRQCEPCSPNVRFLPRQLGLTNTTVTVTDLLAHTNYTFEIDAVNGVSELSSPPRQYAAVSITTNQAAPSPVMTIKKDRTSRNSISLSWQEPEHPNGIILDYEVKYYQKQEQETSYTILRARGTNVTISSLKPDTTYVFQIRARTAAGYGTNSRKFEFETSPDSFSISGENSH

T3: Human EphB4 Fc fusion (Human, UniProt P54760 16-539)
T3 construct: SPR; Sino Biologics 10235-H02H
T3 sequence (looked up): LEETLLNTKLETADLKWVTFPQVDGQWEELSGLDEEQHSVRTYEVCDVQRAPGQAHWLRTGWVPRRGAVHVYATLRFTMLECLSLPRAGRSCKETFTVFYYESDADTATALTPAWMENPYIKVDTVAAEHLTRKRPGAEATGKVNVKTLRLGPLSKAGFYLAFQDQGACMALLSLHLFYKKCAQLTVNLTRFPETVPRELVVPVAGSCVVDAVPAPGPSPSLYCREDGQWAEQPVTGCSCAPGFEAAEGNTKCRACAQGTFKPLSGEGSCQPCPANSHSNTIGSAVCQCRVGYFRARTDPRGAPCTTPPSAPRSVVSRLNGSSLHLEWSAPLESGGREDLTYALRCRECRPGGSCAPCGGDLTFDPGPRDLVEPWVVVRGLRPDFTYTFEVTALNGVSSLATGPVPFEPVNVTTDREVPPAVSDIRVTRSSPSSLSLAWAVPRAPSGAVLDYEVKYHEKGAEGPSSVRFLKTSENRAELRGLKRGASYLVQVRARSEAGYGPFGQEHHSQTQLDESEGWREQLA


Experiments:
[1] = biological target: T1, Human EphA1 Fc fusion; experiment: SPR
[2] = biological target: T4, Human EphA4 Fc fusion (Human, UniProt P54764 20-547); experiment: SPR
T4 construct: SPR; Sino Biologics 11314-H03H

[3] = biological target: T2, Mouse EphA3 Fc fusion; experiment: SPR
[4] = biological target: T5, Mouse EphA4 Fc fusion (Mouse, UniProt Q03137 20-547); experiment: SPR
T5 construct: SPR; Sino Biologics 50575-M02H

[5] = biological target: T3, Human EphB4 Fc fusion; experiment: SPR
[6] = biological target: T6, Human EphA2 (Human, UniProt P29317 24-537, limits assumed, biotinylated, 0.95 mol biotin/monomer); experiment: SPR, biotinylated EphA2 on streptavidin chip
T6 construct: also called Eph receptor tyrosine kinase A2

[7] = biological target: Rat EphA2 (Rat, UniProt D3ZBN3 23-538, biotinylated, 1.4 mol biotin/monomer); experiment: SPR, biotinylated EphA2 on streptavidin chip

T6 sequence (P29317 24-537 limits assumed): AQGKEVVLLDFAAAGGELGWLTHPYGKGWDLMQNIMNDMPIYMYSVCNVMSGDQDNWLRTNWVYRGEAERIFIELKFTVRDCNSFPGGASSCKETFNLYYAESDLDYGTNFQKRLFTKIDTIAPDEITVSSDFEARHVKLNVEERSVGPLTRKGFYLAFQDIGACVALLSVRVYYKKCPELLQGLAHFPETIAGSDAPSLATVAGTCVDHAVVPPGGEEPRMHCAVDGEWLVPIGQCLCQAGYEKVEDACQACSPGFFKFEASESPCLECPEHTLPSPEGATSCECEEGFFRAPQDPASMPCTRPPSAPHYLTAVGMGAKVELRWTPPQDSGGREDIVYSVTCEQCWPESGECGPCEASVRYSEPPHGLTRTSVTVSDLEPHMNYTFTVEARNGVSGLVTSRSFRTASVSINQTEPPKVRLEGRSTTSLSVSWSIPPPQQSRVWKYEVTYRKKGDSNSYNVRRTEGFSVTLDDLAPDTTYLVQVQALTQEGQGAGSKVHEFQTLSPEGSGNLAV
T5 sequence (Q03137 20-547 limits assumed): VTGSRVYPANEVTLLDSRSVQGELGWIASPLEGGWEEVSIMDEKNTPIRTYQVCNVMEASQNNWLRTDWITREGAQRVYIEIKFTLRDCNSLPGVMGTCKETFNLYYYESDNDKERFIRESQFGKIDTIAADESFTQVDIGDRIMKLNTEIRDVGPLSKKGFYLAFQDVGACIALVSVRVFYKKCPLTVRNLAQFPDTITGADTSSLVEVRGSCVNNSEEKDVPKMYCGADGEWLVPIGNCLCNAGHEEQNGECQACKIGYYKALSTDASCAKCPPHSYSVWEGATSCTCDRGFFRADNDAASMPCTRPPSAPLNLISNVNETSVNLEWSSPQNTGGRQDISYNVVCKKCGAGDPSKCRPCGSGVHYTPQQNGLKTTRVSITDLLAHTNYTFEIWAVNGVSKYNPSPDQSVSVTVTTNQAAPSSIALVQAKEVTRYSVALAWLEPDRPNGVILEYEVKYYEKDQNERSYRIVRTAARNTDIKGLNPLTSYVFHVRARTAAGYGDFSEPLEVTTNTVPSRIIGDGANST
T4 sequence (P54764 20-547 limits assumed): as the sequence (Q03137 20-547 limits assumed) above, with A59P, S121N, G124V, Q250R, N251S, S270T, R378K, S406N counted along it

Binder	binding result [1]	binding result [2]	binding result [3]	binding result [4]	binding result [5]	Kd [6] [nM]	t1/2 [6] [min]	Kd [7] [nM]	t1/2 [7] [min]
AXDCPLVNPLCLHPGWTC (not fully specified; as BCY6014 (N-terminal (β-Ala)-Sar10; HArg; TATA scaffold on the 3 Cys) + DM1-SS(SO3H)-, Bicycle drug conjugate (BDC))	no binding	no binding	no binding	no binding	no binding	–	–	–	–
AXDCPLVNPLCLHPGWTC (not fully specified; N-terminal (β-Ala)-Sar10 spacer precedes SEQ ID NO: 11; HArg (homoarginine) at residue 2 of SEQ ID NO: 11; three Cys cyclised on the TATA scaffold; ValCit-MMAE (MMAE-PABC-Cit-Val-glutarate) on the N-terminal amine)	–	–	–	–	–	3.41	3.5	166	2.6
AXDCPLVNPLCLHPGWTC (not fully specified; as BCY6014 (N-terminal (β-Ala)-Sar10; HArg; TATA scaffold on the 3 Cys) + ValCit-MMAE, Bicycle drug conjugate (BDC))	no binding	no binding	no binding	no binding	no binding	–	–	–	–
AXDCPLVNPLCLHPGWTC (not fully specified; N-terminal (β-Ala)-Sar10 spacer precedes SEQ ID NO: 11; HArg (homoarginine) at residue 2 of SEQ ID NO: 11; three Cys cyclised on the TATA scaffold; DM1-SS(SO3H)- (DM1-SO3H-SPDB) on the N-terminal amine)	–	–	–	–	–	2.42	4.8	28.8	3.2
